human NIM1 kinase-GST (recombinant Nim1-GST, expressed in Sf21 insect cells from pVL1392/GST-NIM1)
phosphorylation of substrate in in vitro kinase assay ([gamma-32P]-ATP, SDS-PAGE, autoradiography) (histone): phosphorylated its substrates MBP, lane 2, and HIST. 1, lane 4
phosphorylation of substrate in in vitro kinase assay ([gamma-32P]-ATP, SDS-PAGE, autoradiography) (myelin basic protein): phosphorylated its substrates MBP, lane 2, and HIST. 1, lane 4

From patent US20030087317

Sequence of human NIM1 kinase-GST (recombinant Nim1-GST, expressed in Sf21 insect cells from pVL1392/GST-NIM1) (chain, as listed by the source): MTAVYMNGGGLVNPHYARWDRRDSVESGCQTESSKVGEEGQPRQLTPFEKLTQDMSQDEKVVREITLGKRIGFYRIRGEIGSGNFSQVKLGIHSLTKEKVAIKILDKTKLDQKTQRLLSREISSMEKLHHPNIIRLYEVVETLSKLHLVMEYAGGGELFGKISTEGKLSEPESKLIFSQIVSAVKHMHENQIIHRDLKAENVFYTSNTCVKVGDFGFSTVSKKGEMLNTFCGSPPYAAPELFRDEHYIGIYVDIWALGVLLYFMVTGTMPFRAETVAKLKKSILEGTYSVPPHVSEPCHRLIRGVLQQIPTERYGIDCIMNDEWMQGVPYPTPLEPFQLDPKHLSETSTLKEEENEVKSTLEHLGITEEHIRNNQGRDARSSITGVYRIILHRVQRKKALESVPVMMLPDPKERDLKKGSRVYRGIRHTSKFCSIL
